For orientation: stoichiometry N means the number of molecules, sites or subunits per partner or assembly.

The target of assay [1] is YgjG-protein A fusion protein (shared helix method) (E. coli | Staphylococcus aureus). Briefly: crystal structure; vapour diffusion; complex of YgjG-protein A with ZpA963-calmodulin; 5 mM CaCl2 in all buffers.
Assay [2] shares this target. Briefly: crystal structure; vapour diffusion; complex of YgjG-protein A with ZpA963-PKA_C.
Assay [3] has as its target MrsD-protein A fusion protein (shared helix method) (not stated | Staphylococcus aureus). Briefly: crystal structure; vapour diffusion; crystals of a single fusion protein.

On to “YgjG-protein A fusion protein (shared helix method)”, for which the stoichiometry N in assay [1] and in assay [2] was 4 throughout.
For the substance “MrsD-protein A fusion protein (shared helix method)”, in assay [3], the stoichiometry N is 12.

Values taken from PMC5454011.
